Assay results taken from US8192946B2, “Assays for detecting pregnancy-associated glycoproteins” (The Curators of The University of Missouri, priority 2008, dated 2012).
Square brackets hold non-standard residues; d marks the D form. Peptide text beside a SMILES is read from it. * marks the point of attachment. Sta = CC(C)C[C@H](N)[C@@H](O)CC(=O)O; Isovaleryl = CC(C)CC(=O)*

Columns and labels:
Assay type in all cases: biochemical
[1] = tested on: native bovine PAG (preparation 7-10); assay: inhibition of native PAG peptidase activity by pepstatin A; details: parallel samples in pH 3.5, 4 and 4.5 buffers; FIG. 1
From the text: FIG. 1. pH profile of the activity of native bovine PAG (preparation 7-10) against a fluorescent peptidase substrate. The PAG was isolated by pepstatin affinity chromatography and further purified by anion exchange chromatography. Identical amounts of the 7-10 preparation were mixed with a fluorescent peptidase substrate in the presence of buffers adjusted to different pH levels. The extent of fluorescent product release is indicated on the y-axis and the pH conditions of each reaction are indicated on the x-axis. Parallel samples in the pH 3.5, 4 and 4.5 buffers were treated with pepstatin A, an inhibitor of aspartic peptidases, to determine if any observed activity was from aspartic peptidases.
In each of the examples shown in FIGS. 1-3, native bovine PAGs were bound to pepstatin-agarose matrix at pH 7 or 7.5, washed and eluted by increasing osmolarity (up to 1 M NaCl), including detergent (1% Triton X-100) and increasing the pH of the elution buffer. Different PAGs bind with differing affinities to the aspartic peptidase inhibitor, pepstatin A, and it is possible to isolate different members of the family by systematically altering binding and elution conditions (e.g. Green et al., 2005; Wooding et al., 2005). The differences in activity and pH optima for each of these preparations are illustrated in FIGS. 1-3. […]

[2] = tested on: fluorescent cathepsin D/E substrate; assay: proteolytic activity of purified recombinant PAGs as a function of pH; details: 20 μM substrate; for pH of maximal activity: buffers of varying pH with 100 mM NaCl, FIGS. 5A, 5B
From the text: FIGS. 5A and 5B. The activity of purified recombinant bovine PAG-2 and -12 (FIG. 5A), and porcine PAG-2 (FIG. 5B), against a fluorescent cathepsin D substrate as a function of pH. In FIG. 5A, triangles represent boPAG-2 activity, which is at a maximum at pH 4, while squares represent boPAG-12 activity. In both panels (A and B), each activity point is normalized by the maximum activity (relative fluorescence units) of each peptidase at its optimal pH. The percent activity is shown on the Y-axis and the pH of respective buffers on the X-axis. The error bars represent standard deviation in results obtained from duplicate reads from two separate experiments.
Recombinant boPAG-2 and -12 and recombinant porcine PAG-2 (poPAG-2) were tested for proteolytic activity by incubation with 20 μM fluorescent cathepsin D/E substrate (Peptides International, as above) in buffers of varying pH containing 100 mM NaCl. Raw fluorescence data was transformed to % relative activity, with the highest value set at 100%. Maximal activity for boPAG-2 was at pH 4, while maximal activity for boPAG-12 and poPAG-2 was at pH 3.5 (FIGS. 5A and 5B).

[3] = tested on: cathepsin D/E FRET substrate; assay: anti-FLAG immuno-trap protease assay of recombinant candidate bovine PAGs at pH 3-7
Experimental: FIGS. 6A and 6B. Relative protease activity, as measured by fluorescence, from an immuno-trap protease assay of several recombinant PAGs isolated with an anti-FLAG monoclonal antibody. The reactions were performed under several pH conditions simultaneously (pH 2.5 to 7.0). Identical concentrations of each recombinant PAG lysate were added to the wells.
Table 5 and FIGS. 6A and 6B show results of protease activity (fluorescence) from immuno-trap assays of several additional recombinant bovine PAGs that were expressed as fusion proteins with a FLAG epitope tag. The PAGs were immobilized in the wells of an ELISA plate by using anti-FLAG in an immuno-protease assay format (as described above) and were analyzed for their proteolytic activity against the cathepsin D/E FRET substrate at pH increments ranging from 3-7. […] This protein was used as a negative control in the assay to establish the baseline for background fluorescence.

CC(C)CC(=O)N[C@H](C(=O)N[C@H](C(=O)N[C@@H](CC(C)C)[C@@H](O)CC(=O)N[C@@H](C)C(=O)N[C@@H](CC(C)C)[C@@H](O)CC(=O)O)C(C)C)C(C)C [pepstatin A] (Isovaleryl-VV[Sta]A[Sta]-OH)
inhibition of peptidase activity [1]: inhibited

B1: boPAG-2: recombinant bovine PAG 2 expressed in a baculovirus expression system as FLAG-tagged fusion protein (protein)
chain: DYKDDDDKIVILPLKKMKTLRETLREKNLLNNFLEEQAYRLSKNDSKITIHPLRNYLDTAYVGNITIGTPPQEFRVVFDTGSANLWVPCITCTSPACYTHKTFNPQNSSSFREVGSPITIFYGSGIIQGFLGSDTVRIGNLVSPEQSFGLSLEEYGFDSLPFDGILGLAFPAMGIEDTIPIFDNLWSHGAFSEPVFAFYLNTNKPEGSVVMFGGVDHRYYKGELNWIPVSQTSHWQISMNNISMNGTVTACSCGCEALLDTGTSMIYGPTKLVTNIHKLMNARLENSEYVVSCDAVKTLPPVIFNINGIDYPLRPQAYIIKIQNSCRSVFQGGTENSSLNTWILGDIFLRQYFSVFDRKNRRIGLAPAV
pH of maximal activity [2]: 4

B2: poPAG-2: recombinant porcine PAG-2, FLAG-tagged (protein)
chain: DYKDDDDKLVMIPLTKVKSVRESLREKGLLKNFLKEHPYNMIQNLLSKNSSHVQKFSYQPLRNYLDMVYVGNISIGTPPQQFSVVFDTGSSDLWVPSIYCKSKACVTHRSFNPSHSSTFHDRGKSIKLEYGSGKMSGFLGQDTVRIGQLTSTGQAFGLSKEETGKAFEHAIFDGILGLAYPSIAIKGTTTVIDNLKKQDQISEPVFAFYLSSDKEEGSVVMFGGVDKKYYKGDLKWVPLTQTSYWQIALDRITCRGRVIGCPRGCQAIVDTGTSMLHGPSKAVAKIHSLIKHFEKEYVVPCNARKALPDIVFTINNVDYPVPAQAYIRKYVVPCNARKALPDIVFTINNVDYPVPAQAYIRKNANNNRCYSTFEDIMDTLNQREIWILGDVFLRLYFTVYDEGQNRIGLAQAT
pH of maximal activity [2]: 3.5
activity at pH 2.5 ([2]; pH 2.5, 100 mM NaCl): showed activity

B3: tsh (control): recombinant equine-TSH-beta expressed and purified in the same manner as the PAGs, negative control (protein)
chain: FCIPTEYMMHVERKECAYCLTINTTICAGYCMTRDINGKLFLPKYALSQDVCTYRDFMYKTVEIPGCPDHVTPYFSYPVAVSCKCGKCNTDYSDCIHEAIKANYCTKPQKSYVVEFSI
proteolytic activity ([3]; anti-FLAG immuno-trap, pH 3-7, compared with TSH-beta control): does not have proteolytic activity
Relative fluorescent product release, pH 3.0 ([3]; pH 3.0, immobilized with anti-FLAG): 38349
Relative fluorescent product release, pH 4.0 ([3]; pH 4.0, immobilized with anti-FLAG): 33908
Relative fluorescent product release, pH 5.0 ([3]; pH 5.0, immobilized with anti-FLAG): 34996.5
Relative fluorescent product release, pH 6.0 ([3]; pH 6.0, immobilized with anti-FLAG): 28222.5
Relative fluorescent product release, pH 7.0 ([3]; pH 7.0, immobilized with anti-FLAG): 26590.5
